T1: human Ramos lymphoma cells (CD39) (Homo sapiens, UniProt P49961)
T1 construct: cells that endogenously express CD39 at their surface; host or cells: Ramos
T1 sequence (P49961 1-510): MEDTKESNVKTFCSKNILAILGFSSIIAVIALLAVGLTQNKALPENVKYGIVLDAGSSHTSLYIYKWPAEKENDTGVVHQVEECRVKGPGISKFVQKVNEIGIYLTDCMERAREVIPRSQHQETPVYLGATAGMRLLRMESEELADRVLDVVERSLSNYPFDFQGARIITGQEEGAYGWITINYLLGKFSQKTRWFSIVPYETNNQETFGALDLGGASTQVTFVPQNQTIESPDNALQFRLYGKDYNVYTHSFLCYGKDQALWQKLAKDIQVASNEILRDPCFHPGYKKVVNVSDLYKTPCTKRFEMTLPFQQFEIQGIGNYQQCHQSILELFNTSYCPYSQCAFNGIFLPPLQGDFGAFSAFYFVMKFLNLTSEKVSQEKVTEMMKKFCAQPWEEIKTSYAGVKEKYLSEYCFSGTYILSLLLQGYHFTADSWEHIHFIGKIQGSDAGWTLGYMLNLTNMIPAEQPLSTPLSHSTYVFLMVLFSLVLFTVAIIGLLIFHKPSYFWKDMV

T2: soluble recombinant human CD39 protein (Homo sapiens, UniProt P49961)
T2 construct: made in house; host or cells: CHO cells
T2 sequence (P49961 with tags, fused parts or gaps): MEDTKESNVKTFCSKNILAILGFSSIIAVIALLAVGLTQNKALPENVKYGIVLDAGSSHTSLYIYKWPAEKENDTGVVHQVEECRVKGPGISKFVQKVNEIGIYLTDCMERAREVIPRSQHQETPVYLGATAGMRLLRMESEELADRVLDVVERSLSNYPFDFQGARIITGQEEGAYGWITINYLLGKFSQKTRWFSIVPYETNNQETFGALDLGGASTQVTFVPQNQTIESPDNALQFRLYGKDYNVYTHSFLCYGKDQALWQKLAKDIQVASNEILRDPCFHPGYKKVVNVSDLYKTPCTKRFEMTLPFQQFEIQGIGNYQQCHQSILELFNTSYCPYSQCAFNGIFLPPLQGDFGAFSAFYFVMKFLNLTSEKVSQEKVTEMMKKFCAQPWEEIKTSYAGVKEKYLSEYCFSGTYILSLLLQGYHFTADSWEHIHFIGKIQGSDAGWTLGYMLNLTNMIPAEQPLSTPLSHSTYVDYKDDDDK

T3: CD39 expressed by Ramos human lymphoma cells (Homo sapiens, UniProt P49961)
T3 construct: cells that endogenously express CD39 at their surface; host or cells: Ramos
T3 sequence (P49961 1-510): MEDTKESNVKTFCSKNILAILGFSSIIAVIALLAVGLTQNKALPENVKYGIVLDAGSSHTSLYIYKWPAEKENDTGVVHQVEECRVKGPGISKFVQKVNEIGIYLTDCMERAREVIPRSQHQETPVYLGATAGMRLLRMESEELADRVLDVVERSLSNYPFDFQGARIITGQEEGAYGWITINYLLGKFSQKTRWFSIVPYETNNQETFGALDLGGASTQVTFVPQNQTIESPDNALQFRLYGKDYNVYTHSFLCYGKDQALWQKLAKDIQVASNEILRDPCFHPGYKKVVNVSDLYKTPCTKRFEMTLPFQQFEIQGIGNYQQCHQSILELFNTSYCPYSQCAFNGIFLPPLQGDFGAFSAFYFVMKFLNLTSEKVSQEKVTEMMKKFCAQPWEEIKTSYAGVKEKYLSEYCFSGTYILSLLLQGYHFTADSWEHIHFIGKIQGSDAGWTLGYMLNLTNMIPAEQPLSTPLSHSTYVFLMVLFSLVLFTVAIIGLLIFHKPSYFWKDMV


Assays:
[1] = biological target: T1, human Ramos lymphoma cells (CD39); test: Antibody titration on Ramos cells by flow cytometry; type: binding; settings: comparison
Description: Antibody I-394 was tested in two repeated experiments for binding to CHO cells expressing human CD39, CHO cells expressing cynomolgus (Macaca fascicularis) CD39, CHO cells expressing murine CD39, and human Ramos lymphoma cells (ATCC™, reference CRL-1596). Cells were incubated with various concentration of unlabeled anti-CD39 antibody from 30 μg/ml to 5×10^−4 μg/ml, for 30 minutes at 4° C. After washes, cells were incubated with Goat anti-mouse H+L labeled secondary antibody for 30 min at 4° C.

[2] = Stability in reference formulation (storage, freeze thaw); type: physicochemical; settings: about 7 mg/mL, pH 6.0 histidine/sucrose/NaCl/PS80, +5° C. and +40° C., up to 1 month
Description: (§1) Antibodies mAb1-24 and prior art anti-CD39 antibody BY40, all produced as human IgG1 isotypes with L234A/L235E/G237A/A330S/P331S substitutions were tested for stability in the following reference formulation at a concentration of approximatively 7 mg/mL: pH 6.0; histidine buffer (10 mM); sucrose (200 mM); NaCl (50 mM); Polysorbate 80 (PS80) (0.2 g/L). The stability of the formulations was monitored in two storage conditions (at +5° C.±3° C. and at +40±3° C. For each study, 3 time points were performed: T0, T15D (15 days) and T1M (1 month). A freeze thaw (F/T) and a thermal shift stability assay (TSSA) were conducted for the format comparison. To perform F/T cycles, the samples were frozen at least 2 hours at −20° C. and thawed at least 1 hour at room temperature, the F/T cycle is repeated three times and samples are tested 24 h after the last Freeze/Thaw cycle. At each time point, the following tests were performed: • Particulate Matter (MFI) • Visual Inspection (Appearance) • Impurities (SE-HPLC) • Turbidity (400 nm) • Protein Concentration (280 nm) (performed with Nanodrop, Thermo Fisher Scientific Inc.)

[3] = Aggregation temperature (thermal shift stability assay); type: physicochemical; settings: human IgG1 with L234A/L235E/G237A/A330S/P331S
Description: as §1

[4] = biological target: T2, soluble recombinant human CD39 protein; test: Inhibition of the enzymatic activity of soluble CD39 (Cell Titer Glo, cell-free); type: biochemical; settings: humanized variants
Description: The inhibition by antibodies of the enzymatic activity of soluble CD39 protein produced was evaluated using Cell Titer GIo™ (Promega, reference G7571) that allows assessment of ATP hydrolysis through use of a reagent that generates a luminescent signal proportional to the amount of ATP present. In this way, inhibition of the soluble-CD39-meidated ATP hydrolysis can be assessed. Briefly, dose ranges of anti-CD39 antibodies from 100 μg/ml to […] were incubated with 400 ng/ml of soluble recombinant human CD39 protein having the amino acid sequence described in the Methods section (SEQ ID NO: 44), for 1 h at 37° C. 20 μM ATP was added to the plates for 30 additional minutes at 37° C. before addition of CTG (Cell Titer Glo) reagent. Emitted light was quantified using an Enspire™ luminometer after a short incubation period of 5 min in the dark. Anti-CD39 antibody efficacy was determined by comparing emitted light in presence of antibody with ATP alone (maximal light emission) and ATP together with soluble CD39 protein (minimal light emission).

[5] = biological target: T3, CD39 expressed by Ramos human lymphoma cells; test: Inhibition of the enzymatic activity of cellular CD39 in Ramos cells; type: cell-based; settings: Ramos cells
Description: The inhibition of the CD39 enzymatic activity in CD39-expressing cells by antibodies was evaluated using Cell Titer GIo™ (Promega, reference G7571) that allows assessment of ATP hydrolysis through use of a reagent that generates a luminescent signal proportional to the amount of ATP present. The assay was thus designed to permit assessment of the inhibition of ATP hydrolyzed by CD39 in the cell culture supernatant. Briefly, 5×10^4 Ramos human lymphoma cells, 5×10^3 human CD39−, cynomolgus CD39—and mouse CD39− expressing CHO cells, were incubated 1 hour at 37° C. with anti-CD39 antibodies from 30 μg/ml to 5×10^−4 μg/ml. Cells were then incubated with 20 μM ATP for 1 additional hour at 37° C. Plates were centrifuged for 2 min at 400 g and 50 μl cell supernatant are transferred in a luminescence microplate (white wells). 50 μl CellTiter-Glo™ Reagent (CTG) was added to the supernatant and emitted light was quantified after a 5 min incubation in the dark using a Enspire™ luminometer. Anti-CD39 antibody efficacy was determined by comparing emitted light in presence of antibody with ATP alone (maximal light emission) and ATP together with cells (minimal light emission).

binding to Ramos cells relative to I-394 [1]	Molecule	physicochemical stability [2]	Aggregation temperature (TAgg) [3] [°C]	potency for inhibition of soluble CD39 relative to parental I-394 [4]	potency at blocking CD39 enzymatic activity relative to other antibodies [5]
best binding	mAb8: humanized I-394 variant, VH H2 (SEQ ID NO: 29), VL L1 (SEQ ID NO: 36) (antibody, V domains shown) VH: QVQLVQSGAEVKKPGASVKVSCKASGYTFTDYNMHWVRQAPGQRLEWMGYIVPLNGGSTFNQKFKGRATITVDTSASTAYMELSSLRSEDTAVYYCARGGTRFAYWGQGTLVTVSS VL: DIVMTQSPDSLAVSLGERATINCRASESVDNFGVSFMYWFQQKPGQPPKLLIYGASNQGSGVPDRFSGSGSGTDFTLTISSLQAEDVAVYYCQQTKEVPYTFGGGTKVEIK	good physicochemical stability	~70		
	mAb15: humanized I-394 variant, VH H3 (SEQ ID NO: 30), VL L1* (SEQ ID NO: 37) (antibody, V domains shown) VH: QVQLVQSGAEVKKPGASVKVSCKASGYTFTDYNMHWVRQAPGQRLEWIGYIVPLNGGSTFNQKFKGRATITVDTSASTAYMELSSLRSEDTAVYYCARGGTRFAYWGQGTLVTVSS VL: DIVMTQSPDSLAVSLGERATINCKASESVDNFGVSFMYWFQQKPGQPPKLLIYGASNQGSGVPDRFSGSGSGTDFTLTISSLQAEDVAVYYCQQTKEVPYTFGGGTKVEIK			comparable to the parental I-394 antibody	
	mAb23: humanized I-394 variant, VH H4* (SEQ ID NO: 34), VL L1 (SEQ ID NO: 36) (antibody, V domains shown) VH: QVQLVQSGAEVKKPGASVKVSCKASGYTFTDYNMHWVRQAPGQRLEWIGYIVPLNGGSTFSQKFQGRATITVDTSARTAYMELSSLRSEDTAVYYCARGGTRFAYWGQGTLVTVSS VL: DIVMTQSPDSLAVSLGERATINCRASESVDNFGVSFMYWFQQKPGQPPKLLIYGASNQGSGVPDRFSGSGSGTDFTLTISSLQAEDVAVYYCQQTKEVPYTFGGGTKVEIK				slightly lower potency than mAb20 and mAb21
	mAb14: humanized I-394 variant, VH H3 (SEQ ID NO: 30), VL L1 (SEQ ID NO: 36) (antibody, V domains shown) VH: QVQLVQSGAEVKKPGASVKVSCKASGYTFTDYNMHWVRQAPGQRLEWIGYIVPLNGGSTFNQKFKGRATITVDTSASTAYMELSSLRSEDTAVYYCARGGTRFAYWGQGTLVTVSS VL: DIVMTQSPDSLAVSLGERATINCRASESVDNFGVSFMYWFQQKPGQPPKLLIYGASNQGSGVPDRFSGSGSGTDFTLTISSLQAEDVAVYYCQQTKEVPYTFGGGTKVEIK			comparable to the parental I-394 antibody	
	mAb24: humanized I-394 variant, VH H4* (SEQ ID NO: 34), VL L1* (SEQ ID NO: 37) (antibody, V domains shown) VH: QVQLVQSGAEVKKPGASVKVSCKASGYTFTDYNMHWVRQAPGQRLEWIGYIVPLNGGSTFSQKFQGRATITVDTSARTAYMELSSLRSEDTAVYYCARGGTRFAYWGQGTLVTVSS VL: DIVMTQSPDSLAVSLGERATINCKASESVDNFGVSFMYWFQQKPGQPPKLLIYGASNQGSGVPDRFSGSGSGTDFTLTISSLQAEDVAVYYCQQTKEVPYTFGGGTKVEIK				slightly lower potency than mAb20 and mAb21
best binding	mAb9: humanized I-394 variant, VH H2 (SEQ ID NO: 29), VL L1* (SEQ ID NO: 37) (antibody, V domains shown) VH: QVQLVQSGAEVKKPGASVKVSCKASGYTFTDYNMHWVRQAPGQRLEWMGYIVPLNGGSTFNQKFKGRATITVDTSASTAYMELSSLRSEDTAVYYCARGGTRFAYWGQGTLVTVSS VL: DIVMTQSPDSLAVSLGERATINCKASESVDNFGVSFMYWFQQKPGQPPKLLIYGASNQGSGVPDRFSGSGSGTDFTLTISSLQAEDVAVYYCQQTKEVPYTFGGGTKVEIK	good physicochemical stability	~70		
